Here are results for seven molecules from patent US20230321209A1.

The assay addresses human Adenovirus capsid. Nature of the assay: SPR, peptide on adenovirus capsid (FIGS. 13A-13B). On the technique in general: Surface plasmon resonance follows binding to a sensor surface in real time, without labels.

KKKKKKKKKGLVAEWFLAYILFTRFFYVL [R1AB_GLVAE SARS-CoV2 peptide with 9K poly-lysine tail] showed a list of priority (rank by SPR binding, high binders listed first) of 1 rank.

KKKKKKKKKGLEAPFLYLYALVYFLQSINFV [AP3A_GLEAP SARS-CoV2 peptide with 9K poly-lysine tail] displayed a list of priority (rank by SPR binding, high binders listed first) of 2 rank.

KKKKKKLPKEITVATSRTLSYYKLGA [VME1_LPKEI SARS-CoV2 peptide with 6K poly-lysine tail] registered a list of priority (rank by SPR binding, high binders listed first) of 6 rank.

In turn, KKKKKKKVTLVFLFVAAIFYLITPVHVMSK [R1AB_KVTLV SARS-CoV2 peptide with 6K poly-lysine tail] yielded a list of priority (rank by SPR binding, high binders listed first) of 3 rank.

Turning to KKKKKKAQFAPSASAFFGMSRIGMEV [NCAP_AQFAP SARS-CoV2 peptide with 6K poly-lysine tail], the list of priority (rank by SPR binding, high binders listed first) worked out at 7 rank.

Molecule KKKKKKALALLLLDRLNQLESKMSGK [NCAP_ALALL SARS-CoV2 peptide with 6K poly-lysine tail] showed a list of priority (rank by SPR binding, high binders listed first) of 9 rank.

Molecule KKKKKKKKKKLIFLWLLWPVTLACFVLAAV [VME1_KLIFL SARS-CoV2 peptide with 9K poly-lysine tail] registered a list of priority (rank by SPR binding, high binders listed first) of 4 rank.
